Legend:
Experiment in all cases: cross-linking; 293T cells coexpressing FLAG- and HA-tagged Gag and V1B-MS2 viral RNA treated with 1 mM EGS, 30 min, room temperature; membrane flotation; cytoplasmic fraction (10th fraction) analysed by anti-FLAG western blot
[1] = target: HIV-1 G2A-Gag, FLAG- and HA-tagged (HIV-1)
[2] = target: HIV-1 Gag, FLAG- and HA-tagged (wild type) (HIV-1)
[3] = target: HIV-1 Gag-delCTD, FLAG- and HA-tagged (lacking the C-terminal domain of capsid) (HIV-1)

Substance: HIV-1 G2A-Gag, FLAG- and HA-tagged (natural protein)
- stoichiometry N [1]: 2

Substance: HIV-1 Gag, FLAG- and HA-tagged (wild type) (natural protein)
- stoichiometry N [2]: 2

Substance: HIV-1 Gag-delCTD, FLAG- and HA-tagged (lacking the C-terminal domain of capsid) (natural protein)
- stoichiometry N [3]: 2

— article PMC2987827
